In the test the target is epidermal growth factor receptor (EGFR) on cells (human (on human cell lines)) (UniProt P00533). In words: cell-based or functional assay.

B1: h15-2b Fab × EGFR scFv (monovalent anti-mPEG (h15-2b) anti-EGFR BsAb, example 2.3) (bispecific antibody, part only; not given: nothing essential named, not shown: another chain or arm of the molecule; ; small tags and cut ends)
light: DIQMTQSPSSLSASVGDRVTITCKASQDVNTSVAWYQQKPGKAPKLLIYWASTRHTGVPSRFSGSGSGTDFTFTISSLQPEDIATYYCLQYINYPYTFGQGTKLEIKRTVAAPSVFIFPPSDEQLKSGTASVVCLLNNFYPREAKVQWKVDNALQSGNSQESVTEQDSKDSTYSLSSTLTLSKADYEKHKLYACEVTHQGLSSPVTKSFNRGEC
heavy: EVQLVESGGGLVQPGGSLKLSCAASGFTFSNYWMNWVRQASGKGLEWVGEIRSKSNNYATHYAESVKGRFTISRDDSKNTAYLQMNSLKTEDTAVYYCSNRYYWGQGTLVTVSSASTKGPSVFPLAPCSRSTSESTAALGCLVKDYFPEPVTVSWNSGALTSGVHTFPAVLQSSGLYSLSSVVTVPSSNFGTQTYTCNVDHKPSNTKVDKTVERKGEQKLISEEDLGGGGSGGGGSGGGGSQLDIVMTQSPLSLPVTPGEPASISCRSSQNIVHNNGITYLEWYLQKPGQSPQLLIYKVSDRFSGVPDRFSGSGSGTDFTLKISRVEAEDVGVYYCFQGSHIPPTFGQGTKVEIKRAGGGGSGGGGSGGGGSQVQLVQSGAEVKKPGASVKVSCKASGYTFTSYWMHWVRQAPGQGLEWMGNIYPGSGGTNYAEKFKNRVTMTRDTSISTAYMELSRLRSDDTAVYYCARSGGPYFFDYWGQGTLVTVSS
Regarding B1, the region of interest (ROI) ratio of SW480 (EGFR+) to SW620 (EGFR-) tumors, 24 h stood at 2.04; the region of interest (ROI) ratio of SW480 (EGFR+) to SW620 (EGFR-) tumors, 48 h was found to be 2.32; the region of interest (ROI) ratio of SW480 (EGFR+) to SW620 (EGFR-) tumors, 72 h came to 2.33.
